Results taken from the supplement of paper PMC9112550, “Optimization of the antimicrobial peptide Bac7 by deep mutational scanning” (BMC Biology, 2022).

System: Escherichia coli TOP10
Test: shrunken log2 fold change of peptide-encoding DNA abundance (4.5 h post-induction vs induction); higher = less antimicrobial activity (less host growth inhibition)
Settings: time post-induction: 4.5 h; library: site-saturation at positions 5, 18, 19, 20
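Further: peptides expressed intracellularly from a pBAD plasmid library in pooled LB shake-flask culture, induced with 0.3% L-arabinose, DNA abundance read by NGS, three biological replicates, DESeq2 with apeglm shrinkage.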

RRIRLRPPRLPRPRPRPCHAPRP
shrunken log2 fold change: -0.235

RRIRLRPPRLPRPRPRPCIYPRP
shrunken log2 fold change: -1.16

RRIRLRPPRLPRPRPRPCKCPRP
shrunken log2 fold change: -0.0362

RRIRLRPPRLPRPRPRPCKIPRP
shrunken log2 fold change: -0.357

RRIRLRPPRLPRPRPRPCKMPRP
shrunken log2 fold change: -0.503

RRIRLRPPRLPRPRPRPCLFPRP
shrunken log2 fold change: -0.0955

RRIRLRPPRLPRPRPRPCLVPRP
shrunken log2 fold change: 0.127

RRIRLRPPRLPRPRPRPCPHPRP
shrunken log2 fold change: -0.0552

RRIRLRPPRLPRPRPRPCQAPRP
shrunken log2 fold change: 0.0641

RRIRLRPPRLPRPRPRPCQCPRP
shrunken log2 fold change: -0.672

RRIRLRPPRLPRPRPRPCQGPRP
shrunken log2 fold change: 0.00157

RRIRLRPPRLPRPRPRPCRCPRP
shrunken log2 fold change: 0.00318

RRIRLRPPRLPRPRPRPCRGPRP
shrunken log2 fold change: 0.157

RRIRLRPPRLPRPRPRPCTVPRP
shrunken log2 fold change: -0.0157

RRIRLRPPRLPRPRPRPCVDPRP
shrunken log2 fold change: 0.0214

RRIRLRPPRLPRPRPRPCVIPRP
shrunken log2 fold change: -0.27

RRIRLRPPRLPRPRPRPCWAPRP
shrunken log2 fold change: -0.0392

RRIRLRPPRLPRPRPRPCWNPRP
shrunken log2 fold change: -0.291

RRIRLRPPRLPRPRPRPCYHPRP
shrunken log2 fold change: -0.569

RRIRLRPPRLPRPRPRPDAFPRP
shrunken log2 fold change: 0.0575

RRIRLRPPRLPRPRPRPDAIPRP
shrunken log2 fold change: 0.0952

RRIRLRPPRLPRPRPRPDATPRP
shrunken log2 fold change: 0.398

RRIRLRPPRLPRPRPRPDDIPRP
shrunken log2 fold change: -0.0521

RRIRLRPPRLPRPRPRPDEVPRP
shrunken log2 fold change: 0.256

RRIRLRPPRLPRPRPRPDFWPRP
shrunken log2 fold change: 0.484

RRIRLRPPRLPRPRPRPDHKPRP
shrunken log2 fold change: -0.257

RRIRLRPPRLPRPRPRPDHTPRP
shrunken log2 fold change: -0.0215

RRIRLRPPRLPRPRPRPDHWPRP
shrunken log2 fold change: 0.143

RRIRLRPPRLPRPRPRPDIKPRP
shrunken log2 fold change: -0.145

RRIRLRPPRLPRPRPRPDIQPRP
shrunken log2 fold change: 0.0103

RRIRLRPPRLPRPRPRPDLKPRP
shrunken log2 fold change: -0.0789

RRIRLRPPRLPRPRPRPDLLPRP
shrunken log2 fold change: -0.0261

RRIRLRPPRLPRPRPRPDLYPRP
shrunken log2 fold change: -0.0419

RRIRLRPPRLPRPRPRPDMAPRP
shrunken log2 fold change: 0.0097

RRIRLRPPRLPRPRPRPDNRPRP
shrunken log2 fold change: -0.0526

RRIRLRPPRLPRPRPRPDNYPRP
shrunken log2 fold change: 0.0733

RRIRLRPPRLPRPRPRPDPDPRP
shrunken log2 fold change: -0.0677

RRIRLRPPRLPRPRPRPDPFPRP
shrunken log2 fold change: -0.228

RRIRLRPPRLPRPRPRPDPMPRP
shrunken log2 fold change: -0.00264

RRIRLRPPRLPRPRPRPDTLPRP
shrunken log2 fold change: -0.15

RRIRLRPPRLPRPRPRPDYFPRP
shrunken log2 fold change: -0.146

RRIRLRPPRLPRPRPRPDYMPRP
shrunken log2 fold change: -0.548

RRIRLRPPRLPRPRPRPEAFPRP
shrunken log2 fold change: 0.0443

RRIRLRPPRLPRPRPRPECTPRP
shrunken log2 fold change: 0.114

RRIRLRPPRLPRPRPRPEDVPRP
shrunken log2 fold change: -0.0818

RRIRLRPPRLPRPRPRPEEIPRP
shrunken log2 fold change: -0.012

RRIRLRPPRLPRPRPRPEEWPRP
shrunken log2 fold change: 0.119

RRIRLRPPRLPRPRPRPEFVPRP
shrunken log2 fold change: 0.0203

RRIRLRPPRLPRPRPRPEGHPRP
shrunken log2 fold change: -0.107

RRIRLRPPRLPRPRPRPEGSPRP
shrunken log2 fold change: -0.0436

RRIRLRPPRLPRPRPRPEHQPRP
shrunken log2 fold change: -0.0896

RRIRLRPPRLPRPRPRPEIFPRP
shrunken log2 fold change: 0.161

RRIRLRPPRLPRPRPRPEIWPRP
shrunken log2 fold change: 0.198

RRIRLRPPRLPRPRPRPEKIPRP
shrunken log2 fold change: -0.223

RRIRLRPPRLPRPRPRPEKKPRP
shrunken log2 fold change: -0.176

RRIRLRPPRLPRPRPRPELWPRP
shrunken log2 fold change: 0.626

RRIRLRPPRLPRPRPRPEMMPRP
shrunken log2 fold change: 2.57

RRIRLRPPRLPRPRPRPENEPRP
shrunken log2 fold change: -0.0211

RRIRLRPPRLPRPRPRPEPAPRP
shrunken log2 fold change: 0.0966

RRIRLRPPRLPRPRPRPEPEPRP
shrunken log2 fold change: 0.551

RRIRLRPPRLPRPRPRPEQDPRP
shrunken log2 fold change: -0.125

RRIRLRPPRLPRPRPRPEQHPRP
shrunken log2 fold change: 0.243

RRIRLRPPRLPRPRPRPESFPRP
shrunken log2 fold change: 0.0256

RRIRLRPPRLPRPRPRPESIPRP
shrunken log2 fold change: 0.0419

RRIRLRPPRLPRPRPRPEWHPRP
shrunken log2 fold change: 0.222

RRIRLRPPRLPRPRPRPEYQPRP
shrunken log2 fold change: -0.0351

RRIRLRPPRLPRPRPRPEYSPRP
shrunken log2 fold change: -0.279

RRIRLRPPRLPRPRPRPFCAPRP
shrunken log2 fold change: 0.106

RRIRLRPPRLPRPRPRPFCGPRP
shrunken log2 fold change: -0.126

RRIRLRPPRLPRPRPRPFCKPRP
shrunken log2 fold change: -0.101

RRIRLRPPRLPRPRPRPFCNPRP
shrunken log2 fold change: -0.245

RRIRLRPPRLPRPRPRPFCSPRP
shrunken log2 fold change: 1.91

RRIRLRPPRLPRPRPRPFDSPRP
shrunken log2 fold change: -0.174

RRIRLRPPRLPRPRPRPFEFPRP
shrunken log2 fold change: -0.119

RRIRLRPPRLPRPRPRPFEHPRP
shrunken log2 fold change: 0.0204
